These results are taken from patent US20170354129A1 (NATIONAL AGRICULTURE AND FOOD RESEARCH ORGANIZATION, published 2017).

Bounds are passed on as bounds.

In experiment [1] the target is T1, fully oxidized LDL (UniProt P04114 28-4563, oxidatively modified with copper for 20 hours at 37 C (sites not given)).
T1 construct: Lipoprotein particle; also called fuOxLDL; FoxLDL
Briefly: phage ELISA on oxidized LDL. Background: In an ELISA, binding on a coated surface is turned into a signal by an enzyme label.

The target of experiment [2] is T2, F-AGE (AGEs prepared by fructose treatment of BSA) (bovine, UniProt P02769 25-607, glycated by fructose, 37 C for 12 weeks (sites not given)).
T2 construct: also called F-AGEs; fructose treated BSA
Briefly: SPR single cycle kinetics, biotinylated sRAGE on a streptavidin (SA) chip, F-AGE as analyte.

A further experiment deals with T3, partially oxidized LDL (UniProt P04114 28-4563, oxidatively modified with copper for 4 hours at 37 C (sites not given)).
T3 construct: Lipoprotein particle; also called moOxLDL; moLDL
Briefly: direct ELISA, lowest antigen amount at which detection was possible. On the procedure:
(§1) Antigen recognition activity of a purified single chain antibody was evaluated by direct ELISA. LDLs, acetylated LDLs, partially oxidized LDLs, and fully oxidized LDLs were used as antigens. 0.05 to 10 μg/ml of antigen solution was added to a polystyrene 96-well microwell plate at 100 μl/well and allowed to adsorb overnight at 4° C. The plate was washed three times with PBS (200 μl/well). Blocking buffer (0.25% BSA/PBS) was added at 200 μl/well. The mixture was left standing for 2 hours at room temperature. After the plate was washed three times with PBS (200 μl/well), 2.5 μg/ml/PBS single chain antibody was added at 100 μl/well and reacted for 1 hour at room temperature. The plate was washed five times with PBS (200 μl/well) and anti-His-HRP antibody diluted 1000-fold with blocking buffer was added at 100 μl/well and reacted for 1 hour at room temperature. After washing the plate five times with PBS (200 μl/well), 3,3′,5,5′-tetramethyl-benzidine (TMB) was added at 50 μl/well. The luminescence was examined and 150μ/well of 1N HCl was added to suspend the reaction. Subsequently, the absorbance at 450 nm for each well of the plate was measured (FIG. 11).
(§2) The detection limit was calculated as the detection limit at the lowest concentration at which detection was possible in measured specimens at different dilution levels.

Experiment [3] addresses T1, fully oxidized LDL. The description is as above. The protocol:
as §1, §2

In another experiment the target is T4, acetylated LDL (UniProt P04114 28-4563, acetylated (sites not given)).
T4 construct: Lipoprotein particle; also called AcLDL; Ac LDLs
The description is as above. The protocol:
as §1, §2

Experiment [4] has as its target T5, LDL (unmodified low density lipoprotein) (UniProt P04114 28-4563).
T5 construct: Lipoprotein particle, not a pure protein; also called LDLs; unmodified LDL
The description is as above. The protocol:
as §1, §2

T1 sequence (P04114 28-4563): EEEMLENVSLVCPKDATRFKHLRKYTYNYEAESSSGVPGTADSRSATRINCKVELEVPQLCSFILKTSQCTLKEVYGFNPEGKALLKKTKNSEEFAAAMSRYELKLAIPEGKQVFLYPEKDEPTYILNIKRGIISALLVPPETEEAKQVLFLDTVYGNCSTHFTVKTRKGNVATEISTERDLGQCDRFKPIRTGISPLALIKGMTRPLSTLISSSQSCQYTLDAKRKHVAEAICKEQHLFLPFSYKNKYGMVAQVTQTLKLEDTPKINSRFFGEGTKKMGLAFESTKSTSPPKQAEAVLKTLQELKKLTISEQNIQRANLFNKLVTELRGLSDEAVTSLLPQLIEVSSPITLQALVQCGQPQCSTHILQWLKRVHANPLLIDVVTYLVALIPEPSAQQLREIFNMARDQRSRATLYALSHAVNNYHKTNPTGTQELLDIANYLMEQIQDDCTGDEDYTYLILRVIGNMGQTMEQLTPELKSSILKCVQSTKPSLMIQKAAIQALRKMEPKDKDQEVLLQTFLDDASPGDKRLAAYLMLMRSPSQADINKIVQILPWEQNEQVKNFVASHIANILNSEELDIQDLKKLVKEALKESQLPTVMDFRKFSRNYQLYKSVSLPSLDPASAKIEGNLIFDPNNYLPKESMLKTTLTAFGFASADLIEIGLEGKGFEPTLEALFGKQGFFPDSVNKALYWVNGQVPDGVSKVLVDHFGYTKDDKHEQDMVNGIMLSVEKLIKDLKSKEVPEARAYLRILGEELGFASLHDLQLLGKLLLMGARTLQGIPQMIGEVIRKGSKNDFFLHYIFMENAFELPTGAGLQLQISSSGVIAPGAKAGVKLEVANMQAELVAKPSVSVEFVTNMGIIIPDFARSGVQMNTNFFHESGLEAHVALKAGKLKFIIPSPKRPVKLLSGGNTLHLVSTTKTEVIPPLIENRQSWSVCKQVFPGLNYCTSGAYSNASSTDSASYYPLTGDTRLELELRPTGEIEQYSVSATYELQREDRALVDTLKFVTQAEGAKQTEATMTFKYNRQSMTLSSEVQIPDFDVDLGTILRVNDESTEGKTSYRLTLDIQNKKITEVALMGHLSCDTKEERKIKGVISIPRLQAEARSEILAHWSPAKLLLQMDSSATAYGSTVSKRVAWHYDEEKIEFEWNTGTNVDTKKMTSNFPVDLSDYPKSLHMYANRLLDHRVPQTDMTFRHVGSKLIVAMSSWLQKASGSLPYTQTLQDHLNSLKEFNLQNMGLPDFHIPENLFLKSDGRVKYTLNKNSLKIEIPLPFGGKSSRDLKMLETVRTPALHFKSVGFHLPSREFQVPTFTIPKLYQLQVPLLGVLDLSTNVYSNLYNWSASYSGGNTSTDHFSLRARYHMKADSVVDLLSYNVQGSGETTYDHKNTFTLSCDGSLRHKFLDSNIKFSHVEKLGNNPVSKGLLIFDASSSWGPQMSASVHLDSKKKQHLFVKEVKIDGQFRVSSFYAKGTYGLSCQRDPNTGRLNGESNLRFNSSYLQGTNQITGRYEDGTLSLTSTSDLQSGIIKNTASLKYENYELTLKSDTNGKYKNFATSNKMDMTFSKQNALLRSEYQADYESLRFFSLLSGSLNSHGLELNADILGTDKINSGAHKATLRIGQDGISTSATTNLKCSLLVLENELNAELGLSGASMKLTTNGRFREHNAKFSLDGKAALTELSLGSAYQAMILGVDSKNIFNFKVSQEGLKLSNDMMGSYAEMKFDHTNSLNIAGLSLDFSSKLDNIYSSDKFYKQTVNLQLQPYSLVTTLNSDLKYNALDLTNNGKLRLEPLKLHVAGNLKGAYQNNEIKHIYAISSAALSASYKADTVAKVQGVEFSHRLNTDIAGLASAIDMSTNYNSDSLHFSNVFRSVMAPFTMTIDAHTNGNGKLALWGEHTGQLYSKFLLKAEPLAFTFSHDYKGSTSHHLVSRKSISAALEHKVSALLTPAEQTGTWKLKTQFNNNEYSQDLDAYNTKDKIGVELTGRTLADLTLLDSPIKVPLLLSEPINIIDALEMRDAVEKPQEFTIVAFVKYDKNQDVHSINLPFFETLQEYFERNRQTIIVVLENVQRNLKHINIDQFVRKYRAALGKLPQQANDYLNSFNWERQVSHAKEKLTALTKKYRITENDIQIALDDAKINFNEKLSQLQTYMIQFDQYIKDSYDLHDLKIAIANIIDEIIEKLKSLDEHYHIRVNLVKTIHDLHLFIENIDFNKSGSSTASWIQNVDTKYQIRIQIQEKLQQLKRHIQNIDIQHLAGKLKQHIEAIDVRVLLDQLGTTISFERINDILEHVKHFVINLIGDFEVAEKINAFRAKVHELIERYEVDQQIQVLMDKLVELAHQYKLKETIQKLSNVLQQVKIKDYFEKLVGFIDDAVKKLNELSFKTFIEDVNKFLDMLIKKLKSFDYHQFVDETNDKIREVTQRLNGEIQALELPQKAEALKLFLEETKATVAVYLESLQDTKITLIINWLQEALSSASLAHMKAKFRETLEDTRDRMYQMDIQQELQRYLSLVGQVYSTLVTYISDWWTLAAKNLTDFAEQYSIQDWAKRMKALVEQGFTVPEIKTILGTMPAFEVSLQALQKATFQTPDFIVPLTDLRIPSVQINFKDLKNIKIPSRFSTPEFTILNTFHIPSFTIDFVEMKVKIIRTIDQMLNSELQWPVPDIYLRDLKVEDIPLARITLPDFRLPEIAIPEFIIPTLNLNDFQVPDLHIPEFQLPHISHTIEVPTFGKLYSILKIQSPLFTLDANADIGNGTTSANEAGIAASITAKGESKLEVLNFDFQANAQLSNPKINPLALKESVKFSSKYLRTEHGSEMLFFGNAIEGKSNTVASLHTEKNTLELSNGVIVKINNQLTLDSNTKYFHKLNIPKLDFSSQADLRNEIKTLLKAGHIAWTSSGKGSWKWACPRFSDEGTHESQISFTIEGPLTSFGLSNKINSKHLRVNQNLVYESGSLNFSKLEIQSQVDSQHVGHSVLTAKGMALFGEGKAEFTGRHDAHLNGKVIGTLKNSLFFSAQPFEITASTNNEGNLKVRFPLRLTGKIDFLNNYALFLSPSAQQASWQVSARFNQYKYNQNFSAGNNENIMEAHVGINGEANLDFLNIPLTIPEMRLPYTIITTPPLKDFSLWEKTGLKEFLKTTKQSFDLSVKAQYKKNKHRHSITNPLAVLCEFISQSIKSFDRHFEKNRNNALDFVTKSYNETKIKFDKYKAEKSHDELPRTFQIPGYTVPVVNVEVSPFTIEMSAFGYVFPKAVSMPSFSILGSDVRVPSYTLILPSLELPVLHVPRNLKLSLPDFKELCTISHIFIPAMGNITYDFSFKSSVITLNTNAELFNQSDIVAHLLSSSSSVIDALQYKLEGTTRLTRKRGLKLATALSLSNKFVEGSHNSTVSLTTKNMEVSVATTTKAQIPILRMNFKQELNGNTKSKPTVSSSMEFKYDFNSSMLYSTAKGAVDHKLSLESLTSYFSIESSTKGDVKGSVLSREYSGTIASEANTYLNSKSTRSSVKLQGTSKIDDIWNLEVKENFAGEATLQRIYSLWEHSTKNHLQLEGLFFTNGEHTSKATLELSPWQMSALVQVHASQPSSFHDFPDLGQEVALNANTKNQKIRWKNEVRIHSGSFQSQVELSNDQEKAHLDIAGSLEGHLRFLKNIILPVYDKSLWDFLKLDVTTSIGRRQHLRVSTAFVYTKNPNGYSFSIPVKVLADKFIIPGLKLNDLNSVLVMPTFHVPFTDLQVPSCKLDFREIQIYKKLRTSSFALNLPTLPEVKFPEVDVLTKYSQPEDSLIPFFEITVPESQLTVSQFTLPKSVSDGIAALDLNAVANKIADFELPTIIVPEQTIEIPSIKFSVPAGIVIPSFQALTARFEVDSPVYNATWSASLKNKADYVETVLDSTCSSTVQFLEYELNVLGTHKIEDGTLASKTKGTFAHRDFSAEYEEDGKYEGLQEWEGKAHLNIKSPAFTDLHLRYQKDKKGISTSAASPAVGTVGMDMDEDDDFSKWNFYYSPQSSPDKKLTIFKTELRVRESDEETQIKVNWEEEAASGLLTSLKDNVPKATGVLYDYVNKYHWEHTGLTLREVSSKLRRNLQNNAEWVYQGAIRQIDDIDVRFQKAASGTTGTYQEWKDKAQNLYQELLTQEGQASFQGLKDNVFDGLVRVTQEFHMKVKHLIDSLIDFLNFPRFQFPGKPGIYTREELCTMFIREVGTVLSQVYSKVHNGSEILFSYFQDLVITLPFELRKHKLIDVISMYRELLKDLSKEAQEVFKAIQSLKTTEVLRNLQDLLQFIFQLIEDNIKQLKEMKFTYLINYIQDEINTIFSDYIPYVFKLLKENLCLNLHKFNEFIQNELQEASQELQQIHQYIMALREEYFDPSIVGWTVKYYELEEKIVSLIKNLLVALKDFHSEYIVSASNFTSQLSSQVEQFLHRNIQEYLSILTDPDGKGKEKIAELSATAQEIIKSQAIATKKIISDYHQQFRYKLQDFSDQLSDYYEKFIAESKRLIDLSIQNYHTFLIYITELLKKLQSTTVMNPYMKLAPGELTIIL
T2 sequence (P02769 25-607 limits assumed): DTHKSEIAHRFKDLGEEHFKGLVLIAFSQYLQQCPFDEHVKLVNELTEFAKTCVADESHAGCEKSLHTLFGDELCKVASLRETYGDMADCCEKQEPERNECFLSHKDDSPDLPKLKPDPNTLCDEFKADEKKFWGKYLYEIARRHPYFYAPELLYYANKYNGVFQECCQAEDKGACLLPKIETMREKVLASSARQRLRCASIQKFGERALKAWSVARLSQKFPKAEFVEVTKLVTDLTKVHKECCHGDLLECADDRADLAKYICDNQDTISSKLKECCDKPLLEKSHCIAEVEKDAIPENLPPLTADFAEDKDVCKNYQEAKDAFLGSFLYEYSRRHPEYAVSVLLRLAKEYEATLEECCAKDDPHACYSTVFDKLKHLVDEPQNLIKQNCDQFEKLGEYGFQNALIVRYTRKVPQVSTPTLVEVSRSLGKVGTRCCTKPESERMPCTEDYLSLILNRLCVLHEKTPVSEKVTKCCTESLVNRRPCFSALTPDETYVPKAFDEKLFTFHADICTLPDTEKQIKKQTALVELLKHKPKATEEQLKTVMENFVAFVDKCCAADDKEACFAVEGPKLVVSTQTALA
T3 sequence (P04114 28-4563): as the sequence (P04114 28-4563) above

B1: single chain antibody γ+κ 96, pCANTAB5E clone 96 (phage presented and soluble forms) (scFv)
scFv: MAEVQLVESGAEAKKPGESLKISCKGSGYSFTTNWIGWVRQLPGKGLDWMGIIYPDDSDTRYSPSFQGQVTISADKSISTAYLQWNSLKASDTAMYYCARRQWGSFDLWGQGTMVTVSSGGGGSGGGGSGGGGSEIVLTQSPATLSLSPGERATLSCRASQSVSSFLAWYQQKPGQAPRLLIYGASSRATGIPDRFSGSGSGTDFTLTINRLEPEDFAVYYCQYYGSSGTFGQGTKVEIKR
notes: not shown: C-terminal E tag from pCANTAB5E
Consider B1, for which, in the experiment with fully oxidized LDL [1], the A450 was not below 0.6 A450.

B2: single chain antibody γ+κ 12, pCANTAB5E clone 12 (phage presented and soluble forms) (scFv)
scFv: MAQVQLQQSGPGLVKPSQTLSLTCDISGDSISTNGAAWNWIRQSPSRGLEWLGRTFYRSKWYNDYAVSVKSRMIINPDTSKNQFSLQLSSVTPEDTAVYYCARVACSGGTCLDGIDVWGQGTTVTVSSGGGGSGGGGSGGGGSDIVMTQSPSSLSASVGERVTITCRASQAIRNDLGWYQQKPGKAPKLLVYSASNLQSGVPSRFSGSGSGTDFTLTISSLQPEDFATYYCQQYHSYPRTFSQGTKLEIKR
notes: as for B1
Turning to B2, in the experiment with fully oxidized LDL [1], the A450 was not below 0.6 A450.

B3: silkworm form biotinylated sRAGE (silkworm coexpressing BirA, biotin feed, Example 19) (receptor)
chain: GHHHHHHHHHHSSGHIDDDDKHMAQNITARIGEPLVLKCKGAPKKPPQRLEWKLNTGRTEAWKVLSPQGGGPWDSVARVLPNGSLFLPAVGIQDEGIFRCQAMNRNGKETKSNYRVRVYQIPGKPEIVDSASELTAGVPNKVGTCVSEGSYPAGTLSWHLDGKPLVPNEKGVSVKEQTRRHPETGLFTLQSELMVTPARGGDPRPTFSCSFSPGLPRHRALRTAPIQPRVWEPVPLEEVQLVVEPEGGAVAPGGTVTLTCEVPAQPSPQIHWMKDGVPLPLPPSPVLILPEIGPQDQGTYSCVATHSSHGPQESRAVSISIIEPGEEGPTAGSRSGAGTPVTAPLAGTIWKVLASEGQTVAAGEVLLILEAMKMETEIRAAQAGTVRGIAVKAGDAVAVGDTLMTLAGTKLGPEQKLISEEDLNSAVDHHHHHH
modifications: a single biotin on the biotinylation tag; silkworm form N-linked sugar chains at two sites
notes: also called Biotin tag sRAGE; Biotin-RAGE
In turn, B3 yielded an equilibrium dissociation constant (Kd) in experiment [2] of 220 nM.

B4: single chain antibody γ+κ 5 expressed from pET-22b(+) in E. coli BL21 (DE3), refolded and purified (scFv)
scFv: MAQVQLQQSGPGLVKPSQTLSLTCAISGDSVSSRDAAWNWIRQSPSRGLEWLGRTYYRSEWYTDYAVSLESRLTVNPDTSRNQFSLQLNSVTPEDTAVYLCARGSSWGHAPAFFDYWGQGTLVTVSSGGGGSGGGGSGGGGSDIQMTQSPSSLSASVEDRVAITCRASQSVSTYVAWYQQKPGKAPKLLISQASSLENGVPSRFSGSGSGTDFTLTISSLQPEDFATYYCQQYTTYPYTFGQGTKLEIKR
notes: Human scFv (VH gamma - linker - V kappa) from a spleen library; detected through its His tag with anti-His-HRP; also called clone No. 5; purified single chain antibody; not shown: C-terminal His tag from pET-22b(+) (XhoI cloning)
For B4, the detection limit in the experiment with partially oxidized LDL was found to be 10 ng/100 µl well; with fully oxidized LDL [3] it was 20 ng/100 µl well; with acetylated LDL, 10 ng/100 µl well; in experiment [4] it was 5 ng/100 µl well.

B5: single chain antibody γ+κ 5, pCANTAB5E clone 5 (phage presented and soluble forms) (scFv)
scFv: B4 scFv
notes: the phage-presented and the soluble form are kept under one id, the assay field tells which was used; not shown: C-terminal E tag from pCANTAB5E (phage form: fused to the phage coat protein)
In the case of B5, the A450 with fully oxidized LDL [1] was not below 0.6 A450.

B6: single chain antibody γ+κ 19, pCANTAB5E clone 19 (phage presented and soluble forms) (scFv)
scFv: MAEVQLVESGAEVKNPGASVKVSCKASGYTLTGYYMHWVRQAPGQGLEWMGGIIPMYGTPTYAPRFQGRVTFTADYSTNTVYMELRSLRSEDTAVFYCARQADSASYLDYWGQGTLVTVSSGGGGSGGGGSGGGGSDVVMTQSPGTLSLSPGERATLSCRASQSLDSSYLAWYQQKPGRAPRLLIYGASDRDTGIPDRFSGSGSGTDFTLTISRLEPEDFAVYYCQQYGRSRTFGQGTKLEIKR
notes: as for B1
Molecule B6 returned an A450 in the experiment with fully oxidized LDL [1] not below 0.6 A450.

B7: single chain antibody γ+κ 40, pCANTAB5E clone 40 (phage presented and soluble forms) (scFv)
scFv: MAQVQLVQSGVELRKPGDSVKVSCKASGYSVNTHGMSWVRQAPGQGLEWLGRISSYIGLTKFAQKFQDRVTLTTDTSTNTAYLEMRSLKSDDTAVYFCGRDDYEYDAFDVWGQGTMVTVSSGGGGSGGGGSSGGGSEIVLTQSPATLSVSPGERATLSCRTTESVTDSQLAWYQQKPGQAPRLLIYGPSTRATGIPDRFSGSGSGTDFTLTISGLEPEDFAVYYCQQRNSWYTFGQGTKLEIKR
notes: as for B1
For the molecule B7, the A450 with fully oxidized LDL [1] is not below 0.6 A450.

B8: E. coli form biotinylated sRAGE (Comparative Example 2) (receptor)
chain: AQNITARIGEPLVLKCKGAPKKPPQRLEWKLNTGRTEAWKVLSPQGGGPWDSVARVLPNGSLFLPAVGIQDEGIFRCQAMNRNGKETKSNYRVRVYQIPGKPEIVDSASELTAGVPNKVGTCVSEGSYPAGTLSWHLDGKPLVPNEKGVSVKEQTRRHPETGLFTLQSELMVTPARGGDPRPTFSCSFSPGLPRHRALRTAPIQPRVWEPVPLEEVQLVVEPEGGAVAPGGTVTLTCEVPAQPSPQIHWMKDGVPLPLPPSPVLILPEIGPQDQGTYSCVATHSSHGPQESRAVSISIIEPGEEGPTAGSGLNDIFEAQKIEWHE
notes: Not glycosylated; expressed in Origami B (DE3) together with a biotin ligase; also called E. coli form sRAGE; purified soluble biotinylated RAGE; not shown: His tag present at the N-terminus
B8 returned a Kd in experiment [2] of 280 nM.

In general, Kd refers to the free concentration of one partner at which half of the binding sites on the other are occupied at equilibrium, for simple one-to-one binding. Low values mean a tighter complex, high ones a looser complex.
